In the RNAGym collection of RNA variant scans (doi:10.7554/elife.90254):

B1: LINE1-full (parent)
chain: UACGUAGGUGGUUUUCCCCUGAUAGUGCUAAGGGGGCCUGGAAGUUUGGACUGGGCAGAGCUCAACACAGCGUGGCAAAGUGGCUGUGGCUAGACUGCCUCUCUGGAUUCCUCGUCACUCAGCAGGGCAUCUCUGAGAGAAAUGCC

Variants of: B1
Assay: self-cleavage, relative activity (ratio to wild type); higher = more cleavage; in vitro, sequencing; the parent is a self-cleaving ribozyme

Compared with U9G U81C, U9C G34C is lower in self-cleavage: 0.83 for the first, 0.8 for the second.

Compared with U20C C133U, G8C A138G is higher in self-cleavage: 1.16 for the first, 1.44 for the second.

First: U108C U130C
Second: U104C U130G
The self-cleavage of the first is higher: 1.66 for the first, 1.5 for the second.

Going from G144C C145U to C19U C76U, the self-cleavage rises from 0.99 to 1.64.

Compared with U26A G33A, U62A U134C is lower in self-cleavage: 0.67 for the first, 0.05 for the second.

Compared with A30G A141G, U52C A92G is lower in self-cleavage: 1.26 for the first, 0.1 for the second.

First: U109A C131A
Second: U13C G144A
The self-cleavage of the first is lower: 1.59 for the first, 1.91 for the second.

Going from A78G A124U to C90U A124U, the self-cleavage falls from 1.45 to 0.02.

Going from U81C A142G to U5C A50U, the self-cleavage falls from 1.38 to 0.64.

Compared with A50G U87A, U15A A94G is higher in self-cleavage: 0.03 for the first, 0.19 for the second.

Going from U23A U143A to A22G U112A, the self-cleavage falls from 2.26 to 1.84.

Compared with A30U A79C, C18U A69G is lower in self-cleavage: 1.19 for the first, 0.29 for the second.

First: C3U A142G
Second: A67G G122A
The self-cleavage of the first is lower: 0.47 for the first, 0.54 for the second.

Compared with U23C A77G, A50G G126A is lower in self-cleavage: 1.24 for the first, 0.41 for the second.

Going from C110A A138G to U47C U87A, the self-cleavage falls from 0.95 to 0.12.

Going from G122A A142G to U104C U112A, the self-cleavage rises from 0.42 to 1.8.

First: A2C
Second: A43U C103U
The self-cleavage of the first is higher: 1.24 for the first, 1.09 for the second.

Going from U47A U87C to A64U U108C, the self-cleavage rises from 0.19 to 0.65.

First: C71U U73C
Second: C17U A30G
The self-cleavage of the first is lower: 0.1 for the first, 1.44 for the second.

First: A30G U112C
Second: A30U A57U
The self-cleavage of the first is higher: 0.96 for the first, 0.13 for the second.

Going from A94U G144A to U20C A78G, the self-cleavage rises from 0.4 to 1.52.

First: A136U A140U
Second: A6G G55U
The self-cleavage of the first is higher: 1.65 for the first, 0.41 for the second.

Going from U52C G88A to U62C G72C, the self-cleavage falls from 0.04 to 0.03.

First: U85C A121U
Second: U20A U100A
The self-cleavage of the first is lower: 0.25 for the first, 0.78 for the second.

Going from A42G G80A to A30U U100A, the self-cleavage falls from 2.61 to 0.9.

First: G70A U91A
Second: U13G A79U
The self-cleavage of the first is lower: 0.1 for the first, 0.44 for the second.

Going from A42G U100C to U20A U115A, the self-cleavage rises from 1.54 to 2.02.

First: A6U U85C
Second: U109C U115C
The self-cleavage of the first is lower: 0.4 for the first, 1.22 for the second.

Going from A77G G139A to U15A C90A, the self-cleavage falls from 1.52 to 0.02.

Going from G11A U12G to C19U U23A, the self-cleavage rises from 0.47 to 1.1.

First: G75U U109C
Second: G54U C90A
The self-cleavage of the first is higher: 0.7 for the first, 0.06 for the second.

Compared with A6G U81C, A121G G126A is lower in self-cleavage: 1.78 for the first, 1.24 for the second.

First: G7C A140G
Second: U13C G25U
The self-cleavage of the first is lower: 1.37 for the first, 1.52 for the second.

Compared with A67G U112A, G40U A117G is higher in self-cleavage: 0.53 for the first, 0.97 for the second.

Compared with G35U, U9A U26C is higher in self-cleavage: 1.22 for the first, 1.24 for the second.

Compared with A24G G33C, A121G A138G is higher in self-cleavage: 0.8 for the first, 1.86 for the second.

First: G36C U104A
Second: G75A U143A
The self-cleavage of the first is lower: 1.43 for the first, 1.53 for the second.

Compared with C84U A124G, A94U U134C is higher in self-cleavage: 0.11 for the first, 0.32 for the second.

First: G4A U62C
Second: G54U A69G
The self-cleavage of the first is lower: 0 for the first, 0.17 for the second.

Going from U20C U119C to G4A A107G, the self-cleavage rises from 1.35 to 1.6.

Going from U12G A50U to A31U A121U, the self-cleavage falls from 1.16 to 0.51.

Compared with A65U U104C, U45C U143C is higher in self-cleavage: 0.52 for the first, 1.7 for the second.

First: U91C G127A
Second: U73C U100C
The self-cleavage of the first is lower: 0.53 for the first, 1.99 for the second.

First: A67G A77U
Second: A67G G137A
The self-cleavage of the first is lower: 0.3 for the first, 0.64 for the second.

First: G7U A136G
Second: U81A A124G
The self-cleavage of the first is higher: 1.86 for the first, 1.55 for the second.

Going from U5A A31U to A77U A117G, the self-cleavage rises from 1.1 to 1.6.

First: A92G A142G
Second: U39C C113G
The self-cleavage of the first is lower: 0.14 for the first, 1.71 for the second.

First: A59G
Second: A43G U85G
The self-cleavage of the first is lower: 0.09 for the first, 0.15 for the second.

First: U130C U143C
Second: U85A C99G
The self-cleavage of the first is higher: 1.53 for the first, 0.05 for the second.

First: A59G G97A
Second: U52G U102C
The self-cleavage of the first is lower: 0.03 for the first, 1.87 for the second.

First: A64U G127C
Second: U45C C84A
The self-cleavage of the first is higher: 0.6 for the first, 0.09 for the second.

First: G58U A64U
Second: U73C U87C
The self-cleavage of the first is lower: 0.05 for the first, 0.2 for the second.

First: C110U A141U
Second: G54A A77G
The self-cleavage of the first is lower: 0.84 for the first, 1.02 for the second.

Going from A6U G54U to C103U A142C, the self-cleavage rises from 0.94 to 1.23.

First: U109G A124G
Second: G83U A142G
The self-cleavage of the first is higher: 1.04 for the first, 0.44 for the second.

First: A24G U119C
Second: G33A G55A
The self-cleavage of the first is higher: 0.83 for the first, 0.73 for the second.

First: U108A U130A
Second: U13C A22U
The self-cleavage of the first is lower: 0.38 for the first, 1.22 for the second.

Compared with U14G A140U, G4A U102C is higher in self-cleavage: 0.64 for the first, 0.82 for the second.

Going from C120U A142G to C95U A117G, the self-cleavage falls from 1.59 to 0.14.

Going from U73A A124G to C61U U108C, the self-cleavage falls from 1.03 to 0.01.

First: A65C U119A
Second: U87C C131U
The self-cleavage of the first is lower: 0 for the first, 0.15 for the second.

Compared with C128A A141G, U45A U102G is lower in self-cleavage: 1.01 for the first, 0 for the second.

Compared with U26A A50C, A43G C111U is higher in self-cleavage: 0.78 for the first, 0.93 for the second.

First: U5C G127C
Second: A77G U85A
The self-cleavage of the first is higher: 1.12 for the first, 0.06 for the second.

Going from U15A A24U to U47C G127C, the self-cleavage rises from 1.12 to 1.23.

Going from U12A C113U to U81A U109C, the self-cleavage rises from 1.36 to 1.98.

Compared with C19U A78G, U1G A78G is higher in self-cleavage: 1.24 for the first, 1.25 for the second.

Going from U39A A121U to U47C A78U, the self-cleavage rises from 1.58 to 1.89.

Going from A77U U104A to A141C U143C, the self-cleavage rises from 0.58 to 1.67.

Compared with U14G A57G, U52A U62C is lower in self-cleavage: 2.19 for the first, 0.04 for the second.

First: G40A A129G
Second: U23A C98G
The self-cleavage of the first is higher: 1.42 for the first, 0.14 for the second.

First: A42G C56U
Second: U15A U104C
The self-cleavage of the first is lower: 0.26 for the first, 1.06 for the second.

Compared with G88A A142G, U9C U81G is higher in self-cleavage: 0.06 for the first, 1.31 for the second.

Going from G34C A140U to C3U U96C, the self-cleavage falls from 1.31 to 0.

Compared with U13C C98G, U109C C113A is higher in self-cleavage: 0.15 for the first, 0.99 for the second.

First: G10C U13C
Second: A50G A78G
The self-cleavage of the first is higher: 0.94 for the first, 0.53 for the second.

First: C38U U119A
Second: A22G A92U
The self-cleavage of the first is higher: 1.24 for the first, 0.79 for the second.

Going from U20C A24U to U46C U102A, the self-cleavage falls from 1.37 to 1.09.

First: U39A A42U
Second: U130C C133A
The self-cleavage of the first is lower: 1.35 for the first, 1.61 for the second.

Compared with U85C A140G, U12C G139A is higher in self-cleavage: 0.15 for the first, 0.94 for the second.

Going from U52A A57U to U12C A30G, the self-cleavage rises from 0.14 to 0.87.

Compared with U12C A30U, U132C A141G is higher in self-cleavage: 0.53 for the first, 1.46 for the second.

Compared with A30G U62C, G93A U115C is lower in self-cleavage: 0.13 for the first, 0.04 for the second.

For U20C A94U, the self-cleavage was 0.28.
